Patent publication US20100158890A1, “USE OF THROMBIN MUTANTS TO INHIBIT THE ANTICOAGULATION EFFECT OF THROMBIN INHIBITORS” (priority 2006, published 2010)

Experiments:
[1] = tested on: bivalirudin (Angiomax, Medicines Company)
[2] = tested on: lepirudin (Refludan, Berlex)
whole blood = test: Thrombelastography (TEG) of clot formation in recalcified whole blood; assay type: biochemical, human; details: for effect on TEG amplitude (strength of clot): anticoagulant alone: bivalirudin 5 μg/ml, lepirudin 1 μg/ml, argatroban 0.5 μg/ml
Description: (§1) For plasma collection, whole blood samples (5 ml, in 3.2% trisodium citrate) were obtained after institutional approval and informed written consent from 6 volunteers that had not received any medication in the preceding 2 weeks. For APTT and thrombin generation experiments blood was centrifuged to obtain platelet poor plasma (PPP) for 20 min at 3000×g. PPP was used immediately or stored for not more than a couple of days at −20° C. For TEG® measurements, whole blood in citrate was used after recalcification within 5 min from collection. In all experiments, the final concentration of recombinant thrombin mutant was 5 μg/ml.
The viscoelastic measurement of clot formation was evaluated using Thrombelastogarphy (TEG®, Haemoscope, Niles, Ill.). […] For TEG® measurements, 360 μl aliquots of the samples were transferred to disposable cups containing […] 0.4 M CaCl2. Effects of W215A/E217A on TEG® variables were evaluated after adding this thrombin mutant (5 μg/ml, final concentration) to respective samples. The TEG® variables, the reaction time (in minutes) which represents the onset of clot formation, and maximum amplitude (in mm) which reflects the strength of clot were compared for different groups (Kawasaki et al. (2004) Anesthesia & Analgesia, 99:1440-1444).

platelet-poor plasma = test: Thrombin generation monitoring by Thrombinoscope in platelet-poor plasma; assay type: biochemical, human; details: for effect on onset and peak of thrombin generation: anticoagulant alone in plasma
Description: Fluorogenic substrate (Z-Gly-Gly-Arg-AMC HCl, molecular weight 616.07) for thrombin generation assay was obtained from Bachem (Switzerland). HEPES (N-2-hydroxyethyl piperazine-N′-2-ethanesulfonic acid), CaCl2, BSA (bovine serum albumin) and DMSO (dimethyl sulfoxide) were from Sigma (Sigma, St Louis, Mo.). Tissue factor was dissolved in 10 ml sterile water and then further diluted with working HEPES buffer (20 mM HEPES, 140 mM NaCl, 5 mg/ml BSA), (1:75). For the preparation of Fluca-buffer 1.75 ml HEPES buffer (pH 7.35, 20 mM HEPES, 60 mg/ml BSA was added to 0.2 ml of 1 M CaCl2 in a glass test tube, mixed, and warmed up for few minutes at 37° C. Just before use 50 μl of 100 mM fluorogenic substrate made in DMSO was added to the HEPES-CaCl2 solution and mixed to dissolve. This buffer now contains 2.5 mM substrate and 100 mM CaCl2.
as §1
In order to evaluate this complex regulation of thrombin generation, the Thrombinoscope® system, which enables automated acquisition of thrombin generation time courses in platelet-rich plasma or in platelet-poor plasma (Hemker et al. (2003) Pathophysiology of Haemostasis & Thrombosis, 33:4-15). The method for the automated estimation of endogenous thrombin potential using a commercially available fluorogenic substrate (Z-GlyGly-Arg-AMC) has been described in detail elsewhere (Hemker et al. (2003) Pathophysiology of Haemostasis & Thrombosis, 33:4-15). Briefly, for the thrombin generation experiments, 80 μl of PPP, and 20 μl of the thrombin generation trigger are added to wells of 96-well microtiter plate (Microfluor2, Labsystems, Finland), followed by 20 μl of substrate-calcium chloride buffer. The reaction is monitored using microplate fluorometer (Fluoroskan Ascent, Labsystems, Finland) set at 390 nm (excitation wavelength) and 460 nm (emission wavelength). […] Additionally, heparin (0.2 or 0.5 U/ml) was also evaluated. Heparin reversal with an appropriate concentration of protamine was used for comparison (1 mg of protamine for each 100 units (1 mg) of heparin). To evaluate the effects of the thrombin mutant on protein C activation (Regnault et al. (2003) Thrombosis and Haemostasis, 89:208-212), soluble thrombomodulin (0.75 μg/ml, final concentration) was added to the sample plasma containing the thrombin mutant.

α-thrombin = α-thrombin (Homo sapiens, UniProt P00734); details: association constant for α-thrombin and inhibitor; cited from earlier work
[3] = off-pump coronary surgery, cited from earlier work

Molecule	activated partial thromboplastin time (APTT) in bivalirudin-treated plasma [1]	activated partial thromboplastin time (APTT) in lepirudin-treated plasma [2]	effect on TEG amplitude (strength of clot) (whole blood)	effect on onset and peak of thrombin generation (platelet-poor plasma)	kon (α-thrombin)	further results
human thrombin mutant W215A/E217A	The addition of W215A/E217A to plasma shifted APTT values toward normal ranges.	The addition of W215A/E217A to plasma shifted APTT values toward normal ranges.				TEG reaction time and amplitude in bivalirudin-treated whole blood [1]: With addition of W215A/E217A (5 µg/ml), both reaction time and amplitude variables were reversed to normal for all DTIs; onset (latency) of thrombin generation, Thrombinoscope, bivalirudin-treated plasma [1]: W215A/E217A was effective in shortening prolonged latency of thrombin generation.; TEG reaction time and amplitude in lepirudin-treated whole blood [2]: With addition of W215A/E217A (5 µg/ml), both reaction time and amplitude variables were reversed to normal for all DTIs; onset (latency) of thrombin generation, Thrombinoscope, lepirudin-treated plasma [2]: W215A/E217A was effective in shortening prolonged latency of thrombin generation.
lepirudin			minimally affected	prolonged the onset of thrombin generation, but not the peak level	290 10^6 M^−1s^−1	
Protamine sulfate						reversal of heparin on TEG (onset, clot strength) (whole blood; protamine sulfate 5 μg/ml, heparin 0.5 U/ml): restores the onset completely, and to a lesser extent clot strength; effect on thrombin generation in the presence of heparin (platelet-poor plasma; heparin 0.2 U/ml, W215A/E217A 5 μg/ml or protamine sulfate 2 μg/ml): reversed the peak level
catalytic-site blocked thrombin (thrombin saturated with Phe-Pro-Arg-chlormethylketone)	The active site blocked thrombin (FPR-TH) had no effect on APTT prolonged with either DTIs or heparin.	The active site blocked thrombin (FPR-TH) had no effect on APTT prolonged with either DTIs or heparin.				
CC1CNc2c(cccc2S(=O)(=O)N[C@@H](CCCNC(=N)N)C(=O)N2CC[C@@H](C)C[C@@H]2C(=O)O)C1 (stereo partly drawn) [Argatroban, argatroban]			reduced	prolonged the onset and reduced the peak		peak thrombin level (platelet-poor plasma; argatroban at 0.5 and 1 μg/ml, with W215A/E217A added (FIG. 6D)): > 100 nM
bivalirudin			minimally affected	prolonged the onset of thrombin generation, but not the peak level	430 10^6 M^−1s^−1	range of blood loss ([3]; n=50): 320-4,909 ml; 12-hour post-operative chest tube drainage, median [3]: 793 mL
